Here are results for one substance from patent publication US20080113421A1, “Stabilizing proteins against denaturation and inactivation by charged detergents using chemical modifications, including modifications that increase net charge” (President and Fellows of Harvard College, priority 2006, published 2008).

Data set [1] in a line: Dynamic light scattering, hydrodynamic radius. It counts as physicochemical. The protocol:
Dynamic light scattering (DLS) measurements were performed on a DynaPro light scattering device (Wyatt Technology Corp.), at protein concentrations of […].
Dynamic light scattering was also used to measure the sizes of the folded and unfolded protein and of the presumably aggregated sample. The hydrodynamic radius of the native BCA (2.7±0.7 nm), and of BCA, refolded in 0.1 mM SDS (2.6±0.6 nm), were measured. BCA was denatured in 10 mM SDS, and diluted to 1.8 mM SDS, a concentration at which no refoldings were observed immediately before the measurement. […] The small increase in the hydrodynamic radius of the incubated sample is indicative of the formation of low-order aggregates (e.g., dimers or trimers), but the resolution of DLS measurements was not sufficient to observe each species individually.

The conditions of data set [2]: from solutions of GuHCl; cited from earlier work.
Data set [3] is described as follows: Refolding after 1 week incubation at intermediate SDS concentrations (aggregation test). Format: physicochemical. Conditions: denatured in 10 mM SDS, incubated 1 week at intermediate SDS, diluted into 0.1 mM SDS. As for the experimental part:
Aggregation was tested by renaturing the proteins from a denatured state at 10 mM SDS to 0.1 mM SDS, but through an incubation step at intermediate concentrations of SDS, instead of renaturing by rapid dilution from 10 mM SDS to 0.1 mM SDS directly (i.e., 10 mM SDS→2.5 mM SDS→0.1 mM SDS instead of 10 mM SDS→0.1 mM SDS). For incubation, concentrations of SDS were chosen in which aggregation was believed to occur on a similar or shorter time scale as refolding. The protein-SDS complex was diluted from 10 mM SDS to 2.5-0.7 mM SDS, the proteins were incubated for 1 week at those concentrations, and the samples further diluted to 0.1 mM SDS to initiate fast refolding.
The fluorescence signal from DNSA was normalized to that of refolded protein by rapid dilution from 10 to 0.1 mM SDS.

Data set [4] is described as follows: Net charge of protein (capillary electrophoresis, charge ladder). Format: physicochemical. As for the experimental part: BCA-Ac18 was synthesized by reacting the lysine residues of BCA with acetic anhydride in 100 mM HEPES buffer, pH 8.2. The N-terminus of BCA was acetylated posttranslationally. The final product contained ˜90% of BCA-Ac18 and 10% of BCA-Ac17, as determined by peak areas in an electropherogram from separation by capillary electrophoresis. The net charge of BCA in Tris-Gly buffer was about −3, and the net charge of BCA-Ac18 was about −19. It is believed that the difference in charge between BCA and BCA-Ac18 was less than 18 full units of charge due to charge regulation-adjustment of protonation states of other ionizable groups on the protein to counteract the increasing electrostatic potential on its surface.
For any charge ladder of BCA, as the number of modifications (n) increases, the total charge on the protein becomes more negative, and the surface of the protein becomes more hydrophobic due to conversion of NH3^+ groups to NHCOR groups. Native BCA has a charge of ˜−2.9 at pH 8. The charge on the early rungs of the ladder increased linearly with the number of acylations; each rung adds an additional charge of ˜−0.9. Therefore, for example, BCA-Ac8 has a charge of ˜−10. The later rungs of the ladder may differ by <0.9 units of charge. Using the Linderstrom-Lang model of cooperativity in proton binding, the charge on BCA-Ac18 was calculated to be −19. The mobility of a given rung of BCA-Acn may have nearly the same mobility as the corresponding rung of BCA-Hexn. Thus, the charges of the BCA-Hexn may be indistinguishable from those of BCA-Acn for a given rung number. (Small deviations in mobility between later rungs of the two ladders may be due either to a change in charge or a change in drag between the two ladders. It can be assumed that any differences in the mobilities are due to additional drag from the hexanoyl groups relative to the acetyl groups.

Data set [5] in a line: Unfolding (denaturation) of protein in SDS in Tris-Gly buffer, monitored by DNSA fluorescence. It counts as physicochemical. As for the experimental part: Monitoring unfolding of BCA and BCA-Ac18 was performed as follows. The proteins (200 nM) were incubated in different concentrations of SDS in Tris-Gly buffer. A 100 microliter aliquot of protein-SDS solution was mixed with 100 microliters of DNSA solution (30 micromolar) with the same concentration of SDS, and measured the intensity of fluorescence (Perkin-Elmer LS50B spectrometer, λex=280 nm, λem=460 nm) as a function of time. The denaturation of BCA was continuously monitored in concentrations of SDS above 4 mM. The rate constants were determined for denaturation by fitting the intensity vs. time data to FU=FUmaxe^−kt+FUmin. Unfolding experiments at 37° C. were performed similarly, with samples stored in a dry bath incubator (Fisher Scientific).
The kinetics of unfolding were determined as follows. The rates of denaturation of BCA and BCA-Ac18 were measured by incubating the protein (200 nM) in solutions of different concentrations of SDS. Immediately prior to the measurement, an aliquot of solution containing protein and SDS was mixed with a solution containing DNSA and the same concentration of SDS; this protocol minimized the possibility that DNSA might stabilize the native conformation of the protein, and influence the rate of its denaturation. When BCA was denatured in concentrations of SDS of 4 mM and higher, DNSA was added to the original, denaturing solution because the rate of denaturation was too fast to follow with manual mixing of aliquots of protein and DNSA. It was observed that DNSA, when present with the protein in the denaturing solution, reduced the rates of denaturation by factors of about 2-10.
FIG. 1 plots the fluorescence of DNSA, normalized to the signal at t=0, as a function of time of incubation of samples of BCA and BCA-Ac18 in various concentrations of SDS. The decrease in the intensity of fluorescence of DNSA, and thus in the amount of folded protein, followed first-order kinetics. Denaturation of proteins with surfactants probably proceeds through intermediates, but when using a marker that is specific to the folded active site of carbonic anhydrase, transitions beyond the initial unfolding of the three-dimensional structure of the protein were not detected.
The tables list the half-lives (t1/2) for denaturation of BCA and BCA-Ac18 at several concentrations of SDS. The denaturation of BCA at 4 mM occurred very rapidly, and data are not shown to avoid overlap with data at 3.5 mM. The error bars represent the difference between the average and the largest and smallest values measured from at least three replicate measurements.

Regarding bovine carbonic anhydrase II [BCA], the hydrodynamic radius in data set [1] (denatured in 10 mM SDS, diluted to 1.8 mM SDS immediately before measurement) is given as 2.9±0.6 nm; in data set [1] (denatured, incubated in 1.8 mM SDS for one week) it was 3.6±0.9 nm; in data set [1] (native protein), 2.7±0.7 nm; in data set [1] (refolded in 0.1 mM SDS) it was 2.6±0.6 nm. Besides, in data set [2], the “time constant of rate-limiting step in folding” value is roughly 10 min. In addition, in data set [3], the t1/2 for refolding came out at 648 ± 36 s. The net charge entry in data set [4] (Tris-Gly buffer) was “about −3”. For the same substance, the charge in data set [4] (pH 8) was roughly −2.9. Further, the t1/2 for denaturation in data set [5] (4 mM SDS, Tris-Gly buffer, with DNSA present during denaturation) is recorded as 15 s; in data set [5] (10 mM SDS, Tris-Gly buffer), less than 5 s. Further, the “denaturation in low concentrations of SDS” value in data set [5] (SDS below 2 mM, long (~1 month) periods of time) is reported as “no denaturation”. Further, the “concentration of SDS at which the protein denatures” value in data set [5] (Tris-Gly buffer, CMC 4.3 mM) is no less than 2500 µM.
